Results published in the supplement of paper PMC7125110.
± gives the standard error. For part of these data: Fewer inactive variants are shown than the library holds.

B1: glmS ribozyme (parent)
chain: AUAAAAGCGCCAGAACUACAGAAAUGUAGUUGACGAGGAGGAGGUUUAUCGAAUUUUCGGCGGAUGCCUCCAAA

Experiments:
Conditions in all cases: with glucosamine-6-phosphate
glucosamine-6-phosphate [1] = variants of: B1; assay: kcat; higher = faster cleavage; RNA array
In short: (§1)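 A hybridised Cy3 probe tracked barcoded ribozyme variants, transcribed in situ by E. coli RNA polymerase on sequenced MiSeq chips, at 37 °C. The variants received 40 μM to 10 mM glucosamine-6-phosphate in HEPES/KCl/Mg(OAc)2 buffer. kobs came from decay fits and kcat and KM from weighted Michaelis–Menten fits.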

glucosamine-6-phosphate [2] = variants of: B1; assay: KM; higher = weaker cofactor use; RNA array
In short: as §1

glucosamine-6-phosphate [3] = variants of: B1; assay: self-cleavage kobs at 2500 uM GlcN6P; higher = faster cleavage; RNA array
In short: as §1

glucosamine-6-phosphate [4] = variants of: B1; assay: self-cleavage kobs at 10000 uM GlcN6P; higher = faster cleavage; RNA array
In short: as §1

glucosamine-6-phosphate [5] = variants of: B1; assay: self-cleavage kobs at 40 uM GlcN6P; higher = faster cleavage; RNA array
In short: as §1

glucosamine-6-phosphate [6] = variants of: B1; assay: self-cleavage kobs at 640 uM GlcN6P; higher = faster cleavage; RNA array
In short: as §1

glucosamine-6-phosphate [7] = variants of: B1; assay: self-cleavage kobs at 160 uM GlcN6P; higher = faster cleavage; RNA array
In short: as §1

Variant	kcat (glucosamine-6-phosphate [1]) [s⁻¹]	KM (glucosamine-6-phosphate [2]) [µM]	self-cleavage kobs at 2500 uM GlcN6P (glucosamine-6-phosphate [3]) [s⁻¹]	self-cleavage kobs at 10000 uM GlcN6P (glucosamine-6-phosphate [4]) [s⁻¹]	self-cleavage kobs at 40 uM GlcN6P (glucosamine-6-phosphate [5]) [s⁻¹]	self-cleavage kobs at 640 uM GlcN6P (glucosamine-6-phosphate [6]) [s⁻¹]	self-cleavage kobs at 160 uM GlcN6P (glucosamine-6-phosphate [7]) [s⁻¹]
A39U U57C	0.00022 ± 2.2e-05	9720 ± 1500	4.56e-05 ± 8.7e-06	0.000111 ± 2.2e-05	–	–	–
C11U U30A A48G G59C A64G	–	–	< 1e-05	< 1e-05	< 1e-05	–	–
A39U G41C	2.16e-05 ± 4.5e-07	1200 ± 150	–	1.93e-05 ± 7.7e-06	< 1e-05	–	–
G37C G63A	–	–	< 1e-05	< 1e-05	< 1e-05	< 1e-05	–
G29U A42G G43A	–	–	–	–	< 1e-05	–	–
A14G U47A C50A	–	–	–	–	< 1e-05	–	–
U30C G37C C70U	1.63e-05 ± 2e-06	–	–	–	–	–	–
U47G U65C	0.000283 ± 6.3e-05	–	0.000316 ± 6.8e-05	0.000232 ± 3.5e-05	–	7.88e-05 ± 2.3e-05	–
C11G A39G G63U	–	–	< 1e-05	< 1e-05	< 1e-05	–	–
U45G A64G	0.00935 ± 0.0026	2790 ± 990	0.00451 ± 0.00092	0.00759 ± 0.002	0.000169 ± 2.8e-05	0.00161 ± 0.0003	0.000411 ± 0.00011
A12G C58U	–	–	1.67e-05 ± 7.9e-06	6.35e-05 ± 8.1e-06	< 1e-05	–	–
G13U A36C G38U A39C	1.03e-05 ± 4.7e-06	–	–	–	–	–	–
U30C U49A G60C	–	–	–	–	< 1e-05	< 1e-05	–
G13A A36C	< 1e-05	–	–	< 1e-05	–	–	–
A36G U57A	–	–	< 1e-05	< 1e-05	< 1e-05	< 1e-05	< 1e-05
A33G C50A	1.1e-05 ± 2.3e-06	–	–	–	–	–	–
A14U G35A	–	6.51 ± 1.5	–	–	–	–	–
G29U U47C	0.000228 ± 1.3e-05	1050 ± 180	0.00017 ± 2.9e-05	0.000206 ± 1.8e-05	–	8.08e-05 ± 1.4e-05	4.21e-05 ± 1.6e-05
C16U C71A	0.00166 ± 0.00032	298 ± 95	0.00113 ± 0.00027	0.00173 ± 0.00034	0.000186 ± 2.6e-05	0.00168 ± 0.0003	0.000667 ± 0.00016
A33U G59U G62A	–	–	–	–	< 1e-05	–	–
G13A G43C U65G	–	–	< 1e-05	–	< 1e-05	–	–
C8G A36U G60C	–	–	–	< 1e-05	< 1e-05	–	–
A14U C50U	4.31e-05 ± 1.5e-06	1180 ± 170	3.01e-05 ± 1.1e-05	3.81e-05 ± 1.1e-05	–	–	–
